From the supplement of paper PMC10126150 come the findings set out here.

± gives the standard deviation of the averaged measurements.

The data set deals with ATP. Nature of the data set: switch fluorescence ratio, 500 uM ATP over buffer (Cy3 cluster intensity, sum of 5 cycles each) (fold (ratio)); higher = stronger signal-on switching upon ATP binding; sequences stand for … in TCGTCGGCAGCGTCAGATGTGTATAAGAGACAGTTTTTTTTTTTTTTTTTTTTTTTTT…TC. The settings on record: aptamer strand: ATP DNA aptamer (quencher-CACCTGGGGGAGTATTGCGGAGGAAGG + anchor), 100 nM annealed; ATP concentration: 500 uM. In outline:
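For every switch-domain sequence, the fluorescence ratio is the mean of per-cluster values, each being summed target-cycle Cy3 intensity over summed buffer-cycle Cy3 intensity. Clusters outside 100-1000 RFU were excluded. On a modified Illumina MiSeq flow-cell, the Cy3-labelled switching-strand clusters were annealed to 100 nM quencher-labelled ATP aptamer, imaged in selection buffer and then after 15 min with 500 uM ATP at 22 °C. Five such cycles were run, with NaOH stripping and re-annealing between them.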
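Note: ATP exposure 15 min at 22 °C before imaging.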

CGGAGGTTTG: the switch fluorescence ratio stood at 1.39 ± 0.62.

In the case of CCTTTGAGAT, the switch fluorescence ratio is 1.03 ± 0.022.

As to GCATGTGAAA, the switch fluorescence ratio was found to be 1 ± 0.015.

For TTAACGTAAG, the switch fluorescence ratio came to 1 ± 0.037.

AAACAAAAGT: the switch fluorescence ratio is 1.01 ± 0.037.

On to TGACGAACTC, for which the switch fluorescence ratio came to 1.32 ± 0.045.

For GAGTAAGGGG, the switch fluorescence ratio was determined as 0.969 ± 0.025.

CAGGTAAATT: the switch fluorescence ratio stood at 0.975 ± 0.03.

Turning to TAGTTCGACT, the switch fluorescence ratio turned out to be 1.004 ± 0.0091.

For the sequence ATTACCAATT, the switch fluorescence ratio was found to be 2.24 ± 1.8.

In the case of TGGAGTAGC, the switch fluorescence ratio was determined as 1.07 ± 0.078.

For the sequence TGTAAACCGC, the switch fluorescence ratio came out at 1.2 ± 0.16.

For the sequence TCGGACGGGT, the switch fluorescence ratio came to 1.02 ± 0.025.

Consider GCACTTCCCT, for which the switch fluorescence ratio stood at 1.19 ± 0.014.

On to AATCGTGGTA, for which the switch fluorescence ratio amounted to 1.01 ± 0.029.

On to AAATAATTTT, for which the switch fluorescence ratio was found to be 1.01 ± 0.027.

Take AGAAAAACGG: the switch fluorescence ratio is 1.12 ± 0.25.

Turning to TACGGTGGGG, the switch fluorescence ratio amounted to 1.01 ± 0.027.

Take TAGGTGCCTG: the switch fluorescence ratio is 1.07 ± 0.03.

GAAATCGGA: the switch fluorescence ratio was determined as 0.993 ± 0.016.

Turning to GTAGAGGGGA, the switch fluorescence ratio is 1.02 ± 0.016.

Consider TAGTGAGGCT, for which the switch fluorescence ratio is 0.996 ± 0.01.

Consider ATGCAGGGTT, for which the switch fluorescence ratio stood at 0.978 ± 0.053.

Consider GCTAGCGGAC, for which the switch fluorescence ratio was found to be 1.14 ± 0.025.

For GGGTAAATAT, the switch fluorescence ratio amounted to 0.98 ± 0.014.

As for AGTTTTGTCG, the switch fluorescence ratio amounted to 1.01 ± 0.022.

As to AGGTTATAGT, the switch fluorescence ratio stood at 1.03 ± 0.051.

In the case of GTCTAATATG, the switch fluorescence ratio is 0.9716 ± 0.0048.

On to ACCCGCTCTT, for which the switch fluorescence ratio stood at 1.13 ± 0.022.

In the case of TCTCGTACAG, the switch fluorescence ratio turned out to be 0.982 ± 0.024.

For the sequence TTGGGTTCAA, the switch fluorescence ratio was found to be 1.4 ± 0.52.

For the sequence GCCGGTCGTC, the switch fluorescence ratio worked out at 1.0461 ± 0.00046.

Take TGGATTAGGG: the switch fluorescence ratio stood at 1 ± 0.023.

Take CTTTCCGTTC: the switch fluorescence ratio came out at 1.2 ± 0.092.

For the sequence CGCAAAGGGC, the switch fluorescence ratio was 2.12 ± 1.4.

Take CGTAAACTAG: the switch fluorescence ratio is 0.97 ± 0.016.

As for GTTGGATTAG, the switch fluorescence ratio is 0.993 ± 0.017.

Regarding CATGCACCGG, the switch fluorescence ratio worked out at 0.986 ± 0.05.

With GGCGTTTTGG, the switch fluorescence ratio came out at 0.982 ± 0.026.

For AAGGTCTAAC, the switch fluorescence ratio is 1.012 ± 0.0067.

AGACAAAGCG: the switch fluorescence ratio is 1.03 ± 0.035.

As to CTTCTTTTCA, the switch fluorescence ratio was 1.1 ± 0.064.

For ATTTAGGACA, the switch fluorescence ratio was found to be 1.01 ± 0.021.

In the case of TATCGTCTGG, the switch fluorescence ratio is 0.981 ± 0.015.

GGTCGTTCGC: the switch fluorescence ratio amounted to 1.01 ± 0.038.

With AGTAGGACTC, the switch fluorescence ratio came out at 1.01 ± 0.013.

GACGACGGTT: the switch fluorescence ratio was found to be 1.55 ± 0.1.

As to GCAATTCTAC, the switch fluorescence ratio is 3.085 ± 0.025.

In the case of TTCAATATAG, the switch fluorescence ratio came to 1.21 ± 0.29.

On to GAAATGTATT, for which the switch fluorescence ratio was determined as 1.04 ± 0.063.

Turning to CTCATACCTG, the switch fluorescence ratio came to 1.05 ± 0.021.

AGCCGGGGTA: the switch fluorescence ratio came to 0.995 ± 0.025.

Consider GTTTGTGAAC, for which the switch fluorescence ratio was 0.9821 ± 0.006.

As to TAAAGGTTGC, the switch fluorescence ratio worked out at 0.984 ± 0.02.

In the case of CAAAAGCGAG, the switch fluorescence ratio stood at 1.014 ± 0.0055.

As to TAATGCGGGA, the switch fluorescence ratio turned out to be 1 ± 0.027.

As to ACATTAAGGG, the switch fluorescence ratio is 1.06 ± 0.031.

In the case of TTGAGATGTT, the switch fluorescence ratio turned out to be 1.01 ± 0.025.

For the sequence AATTGTGGGG, the switch fluorescence ratio was 0.983 ± 0.057.

Turning to ATCGTCTCGC, the switch fluorescence ratio was 1.03 ± 0.05.

Take GGGGCACGGG: the switch fluorescence ratio worked out at 1.02 ± 0.034.

Take GCTGCCGGGG: the switch fluorescence ratio was 0.971 ± 0.046.

CAGAAAAGCT: the switch fluorescence ratio turned out to be 1.07 ± 0.034.

In the case of TTTCCTATAT, the switch fluorescence ratio was 1.08 ± 0.078.

TTTTTCCACG: the switch fluorescence ratio came to 1.03 ± 0.018.

In the case of TTTAGGTATG, the switch fluorescence ratio was found to be 0.987 ± 0.03.

In the case of GGCATTAGTT, the switch fluorescence ratio came out at 0.992 ± 0.043.

ATGTTTACTG: the switch fluorescence ratio worked out at 1.033 ± 0.0082.

Consider AATAGGAGGC, for which the switch fluorescence ratio came out at 1.05 ± 0.053.

On to TTCTTAATTT, for which the switch fluorescence ratio amounted to 1 ± 0.025.

As to TAGTGCGATT, the switch fluorescence ratio was determined as 1.02 ± 0.015.

As for CGCCTTTTAT, the switch fluorescence ratio turned out to be 0.98204 ± 0.00038.

Turning to ACTCTATACA, the switch fluorescence ratio is 1.11 ± 0.088.

As to TAATTTATCC, the switch fluorescence ratio was found to be 1.022 ± 0.0095.

Regarding CTTAACTTGA, the switch fluorescence ratio turned out to be 1 ± 0.025.

For the sequence TCTGGCTTTT, the switch fluorescence ratio is 1.022 ± 0.0092.

For TTTCAATGTA, the switch fluorescence ratio came to 1.01 ± 0.039.

Take AGCGCAAGAT: the switch fluorescence ratio is 1.791 ± 0.013.

Turning to GTCAAACGGA, the switch fluorescence ratio came to 0.986 ± 0.018.

For AGTTACCTCT, the switch fluorescence ratio turned out to be 1.03 ± 0.013.

For the sequence GGCGTAAGTG, the switch fluorescence ratio stood at 0.953 ± 0.027.

In the case of GGCGGAGGGA, the switch fluorescence ratio stood at 0.99 ± 0.011.

AAGGCAAAAT: the switch fluorescence ratio was 1.04 ± 0.029.

Consider TAGAGGACGA, for which the switch fluorescence ratio came to 1.04 ± 0.063.

For ACATCCATTT, the switch fluorescence ratio turned out to be 1.02 ± 0.05.

For TTTTGAAGCC, the switch fluorescence ratio was 1.03 ± 0.014.

Consider ATTGCTGTTC, for which the switch fluorescence ratio was 1.03 ± 0.037.

In the case of ACGATTTATC, the switch fluorescence ratio came to 1.01 ± 0.016.

Take TTATATCAAT: the switch fluorescence ratio is 0.9999 ± 0.0041.

Take TTGAATTGGG: the switch fluorescence ratio was found to be 0.999 ± 0.046.

With GAGTTCCCGG, the switch fluorescence ratio is 1 ± 0.011.

Turning to CAGGGACAAT, the switch fluorescence ratio came to 1.04 ± 0.023.

For the sequence GTGCCCTGTA, the switch fluorescence ratio turned out to be 0.9704 ± 0.0046.

With TTGATGACGT, the switch fluorescence ratio was 0.9932 ± 0.0075.

Regarding TTTTCTGTGG, the switch fluorescence ratio turned out to be 0.994 ± 0.035.

As to TAAGAAGGAA, the switch fluorescence ratio was found to be 0.9918 ± 0.0091.

Turning to AATCGGATAA, the switch fluorescence ratio stood at 1.05 ± 0.019.

Take CGACCGTAAA: the switch fluorescence ratio amounted to 1.5 ± 0.14.

For the sequence GGGGAGTGG, the switch fluorescence ratio was 1.01 ± 0.025.

In the case of TTCTGACGG, the switch fluorescence ratio was 1.48 ± 0.55.

With TATCACCGGC, the switch fluorescence ratio stood at 1.09 ± 0.031.

As to GGGTTTACTT, the switch fluorescence ratio was 0.99844 ± 0.00094.

As for ACGGGGTAGT, the switch fluorescence ratio turned out to be 1.02 ± 0.024.

AGGACGACGG: the switch fluorescence ratio was 0.964 ± 0.021.

In the case of TTAGGTTGTT, the switch fluorescence ratio amounted to 1.01 ± 0.013.

As for ACGTCTTTGT, the switch fluorescence ratio was 1 ± 0.088.

In the case of ATTGTTTGAT, the switch fluorescence ratio was determined as 1.01 ± 0.022.

Regarding CGTTGCTACA, the switch fluorescence ratio was 1.01 ± 0.019.

For the sequence TTTTTTTG, the switch fluorescence ratio came to 0.997 ± 0.026.

As for CGCGGGGTAA, the switch fluorescence ratio is 1.04 ± 0.011.

Regarding AGGGTAGTTT, the switch fluorescence ratio is 0.985 ± 0.045.

With CGGAAGTGCC, the switch fluorescence ratio was 1.016 ± 0.0014.

For the sequence TGTTTTTTCG, the switch fluorescence ratio stood at 0.992 ± 0.024.

For the sequence GATGTGTGGC, the switch fluorescence ratio was determined as 0.974 ± 0.022.

On to TTGTTGTCTA, for which the switch fluorescence ratio was 0.995 ± 0.015.

As to AGTCGCACGA, the switch fluorescence ratio turned out to be 0.986 ± 0.016.

As to GGTACTGGGG, the switch fluorescence ratio came out at 1.06 ± 0.015.

For TAAAATCATT, the switch fluorescence ratio turned out to be 0.974 ± 0.035.

For the sequence CGACACCGTT, the switch fluorescence ratio came out at 1.03 ± 0.056.

On to AATTTATTGT, for which the switch fluorescence ratio is 1.003 ± 0.0013.
